From PMC11546553, “Chitin Translocation Is Functionally Coupled with Synthesis in Chitin Synthase” (International Journal of Molecular Sciences, 2024)

Molecular target: the molecule itself
Assay: cryo-EM structure; purified PsCHS at 3 mg/mL in digitonin, incubated with 0.5 mM UDP-GlcNAc and 1 mM Mn2+ for 15 min or 40 min at 25 °C before freezing; UDP/Mn2+-bound state resolved for both samples

B1: Phytophthora sojae chitin synthase 1 (enzyme)
chain: MSGAPPPSSGFAPRSYGQQPLSHAPRSSMMSVEYDGIPLPPPSIRSCGSQQYVTSYIPTGAAFPPSSVQDMISSMKSYASATDLVRTYSEIPSVEEALSTLDRAAAALNARRYRDALKLYLEGGYAMANVAERQANPKICNLLTSKGFETLNWCARLCDWIEGRIKEKHPRPGVHKVGIPVSNWDEDWVGPFMDEEEARRMWYTPVYCPHPIDFSNLGYRLRCVETGRRPRLMICITMYNEGPQQLKATLKKLANNLAYLKEQMPGDEKSLTGAFAGDDVWQNVLVCIVADGREQVHPKTLDYLEAIGLYDEDLLTINSAGIGAQCHLFEHTLQLSVNGKCLLPIQTVFALKENKASKLDSHHWYFNAFAEQIQPEYTAVMDVGTMLTKSALYHLLFAFERNHQIGGACGQLTVDNPFENLSNWVISAQHFEYKISNILDKSLESCFGFISVLPGAFSAYRYEAIRGAPLDAYFQTLNIELDVLGPFIGNMYLAEDRILSFEVVARKNCNWTMHYVKDAVARTDVPHDLVGLISQRKRWLNGAFFATLFSIWNWGRIYSESKHTFVRKMAFLVFYVYHLLYTAFGFFLPANLYLALFFIVFQGFQQNRLEFIDTSEYSQTVLDCAVYIYNFSYLFGLLMLIIIGLGNNPKHMKLTYYFVGAVFGLMMMLSSLVGAGIFFSTPATVHSIVVSILTVGVYFIASALHGEVHHIFMTFTHYTALIPSFVNIFTIYSFCNLQDLSWGTKGLHDDPLLAASLDETEKGDFKDVIAKRRALEELRREEKERVENRKKNFEAFRTNVLLTWAFSNLIFALFVVYFASSSTYMPVLYIFVASLNTCRLLGSIGHWVYIHTEGLRGRVIDKSECGNGTGRYPQNSYVQLEEHYAALAEDQRTYASGRTNASVRTVNDVSSAA
notes: Phytophthora sojae chitin synthase 1 (PsCHS1), the PsCHS gene in pcDNA3.1; the final models lack residues 1-22, stretches within 40-90, 738-761 and 860-925; also called PsCHS; PsCHS1; source: HEK293F cells, transfected (pcDNA3.1), purified (digitonin solubilisation, Ni-NTA, Superose 6 Increase SEC)
  stoichiometry N: 2
